The target in test [1] is ACP-GluA1 (GluA1 tagged with the acyl carrier protein at its N-terminus) (mouse). In words: single-molecule fluorescence tracking (TIRF), colocalization durations, simultaneous two colours; living HEK293 cells, plasma membrane, TARP2-mGFP with ATTO594-labelled ACP-GluA1 or ACP-GluA2 monomers and homodimers; lifetimes corrected for photobleaching.
Test [2] has as its target ACP-GluA2 (GluA2 tagged with the acyl carrier protein at its N-terminus), P23819. The description is as above. The settings on record: remark: other sources report otherwise.

Chain of ACP-GluA2 (GluA2 tagged with the acyl carrier protein at its N-terminus), P23819 (P23819 25-883): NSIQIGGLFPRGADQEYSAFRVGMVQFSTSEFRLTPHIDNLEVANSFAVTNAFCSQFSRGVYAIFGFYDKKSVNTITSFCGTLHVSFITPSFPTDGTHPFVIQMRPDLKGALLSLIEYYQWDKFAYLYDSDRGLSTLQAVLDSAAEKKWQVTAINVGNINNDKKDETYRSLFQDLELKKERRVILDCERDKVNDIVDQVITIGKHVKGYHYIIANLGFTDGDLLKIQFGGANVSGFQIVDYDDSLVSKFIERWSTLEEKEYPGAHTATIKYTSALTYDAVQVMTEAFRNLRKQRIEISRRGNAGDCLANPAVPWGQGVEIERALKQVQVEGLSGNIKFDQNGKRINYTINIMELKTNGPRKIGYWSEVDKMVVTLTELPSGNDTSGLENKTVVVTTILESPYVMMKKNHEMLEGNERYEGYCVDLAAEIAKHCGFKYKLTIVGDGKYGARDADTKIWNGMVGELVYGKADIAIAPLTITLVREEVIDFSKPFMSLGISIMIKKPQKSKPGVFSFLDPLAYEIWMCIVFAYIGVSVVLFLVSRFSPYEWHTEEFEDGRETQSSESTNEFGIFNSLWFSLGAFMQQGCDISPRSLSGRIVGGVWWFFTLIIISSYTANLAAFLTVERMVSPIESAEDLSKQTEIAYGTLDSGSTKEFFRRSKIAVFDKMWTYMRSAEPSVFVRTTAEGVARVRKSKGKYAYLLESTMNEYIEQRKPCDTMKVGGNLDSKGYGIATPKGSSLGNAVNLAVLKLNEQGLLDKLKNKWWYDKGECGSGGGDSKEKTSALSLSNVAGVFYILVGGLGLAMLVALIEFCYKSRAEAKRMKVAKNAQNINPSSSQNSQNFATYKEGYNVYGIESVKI
Chain of ACP-GluA1 (GluA1 tagged with the acyl carrier protein at its N-terminus) (mouse) (P23818 19-907): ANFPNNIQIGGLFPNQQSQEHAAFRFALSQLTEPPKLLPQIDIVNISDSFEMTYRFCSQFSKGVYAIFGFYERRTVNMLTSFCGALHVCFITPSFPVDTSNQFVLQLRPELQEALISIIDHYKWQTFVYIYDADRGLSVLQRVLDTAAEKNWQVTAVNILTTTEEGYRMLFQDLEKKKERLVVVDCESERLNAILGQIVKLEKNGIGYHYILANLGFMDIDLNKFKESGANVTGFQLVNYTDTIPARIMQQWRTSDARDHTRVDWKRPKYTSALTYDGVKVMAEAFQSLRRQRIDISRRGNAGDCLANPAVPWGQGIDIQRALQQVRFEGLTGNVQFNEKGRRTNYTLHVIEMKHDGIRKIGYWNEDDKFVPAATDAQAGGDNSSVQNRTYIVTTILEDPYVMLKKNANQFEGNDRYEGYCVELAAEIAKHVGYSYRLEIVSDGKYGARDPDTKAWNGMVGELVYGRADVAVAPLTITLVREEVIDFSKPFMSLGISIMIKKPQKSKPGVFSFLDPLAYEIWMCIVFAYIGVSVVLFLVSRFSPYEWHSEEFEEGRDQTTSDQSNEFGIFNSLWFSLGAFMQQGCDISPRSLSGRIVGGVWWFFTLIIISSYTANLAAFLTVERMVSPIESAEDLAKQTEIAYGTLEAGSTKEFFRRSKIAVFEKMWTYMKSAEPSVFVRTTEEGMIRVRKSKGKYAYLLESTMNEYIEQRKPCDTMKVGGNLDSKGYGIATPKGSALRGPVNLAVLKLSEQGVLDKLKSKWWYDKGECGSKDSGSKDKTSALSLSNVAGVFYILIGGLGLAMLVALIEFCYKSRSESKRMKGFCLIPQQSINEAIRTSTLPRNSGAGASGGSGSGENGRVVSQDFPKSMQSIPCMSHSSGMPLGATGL

B1: TARP2-mGFP (transmembrane AMPA receptor regulatory protein 2 with mGFP fused to its C-terminus) (natural protein)
chain: MGLFDRGVQMLLTTVGAFAAFSLMTIAVGTDYWLYSRGVCKTKSVSENETSKKNEEVMTHSGLWRTCCLEGNFKGLCKQIDHFPEDADYEADTAEYFLRAVRASSIFPILSVILLFMGGLCIAASEFYKTRHNIILSAGIFFVSAGLSNIIGIIVYISANAGDPSKSDSKKNSYSYGWSFYFGALSFIIAEMVGVLAVHMFIDRHKQLRATARATDYLQASAITRIPSYRYRYQRRSRSSSRSTEPSHSRDASPVGVKGFNTLPSTEISMYTLSRDPLKAATTPTATYNSDRDNSFLQVHNCIQKDSKDSLHANTANRRTTPV
Turning to B1, in test [1], the lifetime of binding (to GluA1 monomers and to GluA1 homodimers) is 200 ms.

B2: TARP2-mGFP (transmembrane AMPA receptor regulatory protein 2 with mGFP fused to its C-terminus), O88602 1-323 (natural protein)
chain: B1 chain
modifications: here or on the partner: ATTO594 on the ACP tag (ATTO594-Coenzyme A with ACP-synthase)
For the molecule B2, the lifetime of binding (to GluA2 monomers and to GluA2 homodimers) in test [2] amounted to 200 ms.
